Key:
Assay type in all cases: cell-based, human
[1] = system: undifferentiated hESCs; assay: Concentration-dependent effect of RA: toxicity; conditions: higher concentrations (e.g., 10 μM)
Protocol: In some experiments, K14-positive cells were generated from EBs.
To study the concentration-dependent effect of RA, EBs were differentiated with varying RA concentrations for nine days and subsequently cultured on gelatin in DSFM for nineteen days. […] To study the temporal-dependent effect of RA, RA was added to the cultures at various stages of differentiation (e.g., either during EB induction or during adherent culture in DSFM). […] When exposed to RA, plated cells from control EBs were enriched in neural precursor populations, as confirmed by qPCR analysis.

[2] = system: hESCs; assay: Direct differentiation of hESCs to K14-positive cells; conditions: for K14+ yield: subsequent culture in keratinocyte medium, RA+/− cultures
Protocol: For immunohistochemistry, cells were fixed in 4% paraformaldehyde for 15 minutes at room temperature before blocking and permeabilizing with 5% milk in PBS with 0.4% Triton X-100.

[3] = system: hESCs; assay: Direct differentiation of hESCs in N2 medium containing RA, BMP-4 or Noggin: epithelial and neuroectodermal transcripts; conditions: six days, BMP-4 inhibition in RA-treated samples
Protocol: For semi-quantitative and quantitative PCR, RNA was harvested from cells using a RNeasy® Mini kit (Qiagen; Valencia, Calif.). cDNA was then generated using Omniscript® RT (Qiagen), 1 μg RNA and oligo-dT primers. For semi-quantitative analysis, PCR was conducted using Platinum® Taq (Invitrogen) with 1 μl cDNA for 30 or 35 cycles. For quantitative analysis, PCR was conducted using Quantitect® SYBR Green qPCR kit (Qiagen) with 1 μl cDNA on an iCycler (BioRad; Hercules, Calif.). Relative expression levels were calculated using the ΔCT method, normalizing to GAPDH transcription. Primers (Table 1) were designed to span intron or bound exon borders, and PCR products were verified by melt curve analysis and/or 2% agarose gel electrophoresis.
BMP-4 synergized with RA in direct differentiation of hESCs to K14^+ cells. hESCs were directly differentiated in N2 medium containing RA, BMP-4 or Noggin (a BMP inhibitor). After differentiation for six days, RNA was analyzed for expression of epithelial and neuroectodermal transcripts. ΔNp63 was elevated in all RA-treated cell samples, regardless of status of BMP signaling.

CC1=C(/C=C/C(C)=C/C=C/C(C)=C/C(=O)O)C(C)(C)CCC1 [RA, tretinoin (all-trans RA), reference compound]
toxicity to undifferentiated hESCs [1]: appeared toxic | cells expressing K14 ([2]; after five weeks of differentiation, subculture in keratinocyte medium): 87%

B1: Noggin: a BMP inhibitor (R&D Systems) (protein, UniProt Q13253 28-232, looked up)
Noggin: QHYLHIRPAPSDNLPLVDLIEHPDPIFDPKEKDLNETLLRSLLGGHYDPGFMATSPPEDRPGGGGGAAGGAEDLAELDQLLRQRPSGAMPSEIKGLEFSEGLAQGKKQRLSKKLRRKLQMWLWSQTFCPVLYAWNDLGSRFWPRYVKVGSCFSKRSCSVPEGMVCKPSKSVHLTVLRWRCQRRGGQRCGWIPIQYPIISECKCSC
K14+ yield [2]: decreased | effect on RA downregulation of neuroepithelial gene expression [3]: mitigated this effect

B2: BMP-4: bone morphogenetic protein-4 (R&D Systems), growth factor of the TGF-β superfamily (protein, UniProt P12644 293-408, looked up)
Bone morphogenetic protein 4: SPKHHSQRARKKNKNCRRHSLYVDFSDVGWNDWIVAPPGYQAFYCHGDCPFPLADHLNSTNHAIVQTLVNSVNSSIPKACCVPTELSAISMLYLDEYDKVVLKNYQEMVVEGCGCR
K14+ yield [2]: only slightly affected

— US20090075374A1, “METHODS OF GENERATING EPITHELIAL LINEAGE CELLS FROM EMBRYOID BODIES AND PLURIPOTENT CELLS” (priority 2007, published 2009)
